One block for each binder: values may come before it.
Assays:
[1] = target: T1, IL-2R CD122-CD132 on Jurkat-PD1+CD122+ cells (UniProt P14784 27-551; P31785 23-369); test: cell-based or functional assay
T1 sequence (looked up) 1: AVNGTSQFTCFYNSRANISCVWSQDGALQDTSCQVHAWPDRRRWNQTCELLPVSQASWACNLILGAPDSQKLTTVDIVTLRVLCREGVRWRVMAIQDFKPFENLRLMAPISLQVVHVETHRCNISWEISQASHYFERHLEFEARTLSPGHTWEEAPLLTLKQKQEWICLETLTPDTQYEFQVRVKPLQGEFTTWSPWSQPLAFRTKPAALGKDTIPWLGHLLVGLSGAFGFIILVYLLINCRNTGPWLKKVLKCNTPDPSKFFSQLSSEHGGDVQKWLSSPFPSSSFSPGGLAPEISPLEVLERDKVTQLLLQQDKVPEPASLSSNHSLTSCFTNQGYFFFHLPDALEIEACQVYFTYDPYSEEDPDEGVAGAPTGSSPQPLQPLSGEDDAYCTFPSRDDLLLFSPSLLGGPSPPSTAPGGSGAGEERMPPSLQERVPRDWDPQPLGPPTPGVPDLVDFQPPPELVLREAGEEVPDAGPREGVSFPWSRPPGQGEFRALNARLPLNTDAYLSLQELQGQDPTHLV
T1 sequence (looked up) 2: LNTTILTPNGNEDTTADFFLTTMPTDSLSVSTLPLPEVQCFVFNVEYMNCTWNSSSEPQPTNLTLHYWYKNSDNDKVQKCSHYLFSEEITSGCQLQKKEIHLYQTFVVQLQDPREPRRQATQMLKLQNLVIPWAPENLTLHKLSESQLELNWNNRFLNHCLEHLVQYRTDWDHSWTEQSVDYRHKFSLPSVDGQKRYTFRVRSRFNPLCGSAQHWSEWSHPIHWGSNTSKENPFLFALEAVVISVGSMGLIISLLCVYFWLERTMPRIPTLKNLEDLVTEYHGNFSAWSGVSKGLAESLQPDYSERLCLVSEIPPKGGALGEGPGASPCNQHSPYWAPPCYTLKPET

[2] = target: T2, hPD-1 (ECD-His, produced in house) (human, UniProt Q15116 25-170); test: binding ELISA
T2 construct: extracellular domain; also called coated hPD-1
T2 sequence (Q15116 25-170): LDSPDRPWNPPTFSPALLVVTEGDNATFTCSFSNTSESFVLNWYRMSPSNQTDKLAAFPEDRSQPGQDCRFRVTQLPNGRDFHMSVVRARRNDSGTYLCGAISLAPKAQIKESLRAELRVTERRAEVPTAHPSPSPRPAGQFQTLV
Method: 60 nM of hPD-1 (ECD-His, produced in house) was coated on a Maxisorp plate (Nunc) overnight at 4° C. and blocked with 5% BSA in PBS. […] Absorbance signal after adding TMB was read with a plate reader (Spectramax ID3) at 450 nm. EC50 values were determined by blotting absorbance against concentration (Graphpad Prism, sigmoidal curve fit, 4 PL, X-axis is log).

recombinant human IL-2 [3] = target: T3, recombinant human IL-2 (human, UniProt P60568 21-153); test: BLI, antibody immobilized
T3 construct: bought (BLI: Acro Biosystems IL2-H4113); also called rhIL-2; hIL-2
T3 sequence (P60568 21-153 limits assumed): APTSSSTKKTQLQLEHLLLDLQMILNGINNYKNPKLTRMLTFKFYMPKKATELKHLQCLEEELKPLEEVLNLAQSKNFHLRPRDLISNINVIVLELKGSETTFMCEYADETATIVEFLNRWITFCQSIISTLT
Method: (§1) Binding to IL-2 was first tested by ELISA using a serial dilution of antibodies on coated IL-2. Recombinant human IL-2 was coated on Maxisorp ELISA plates (Invitrogen, 44-2404-21) at 5 μg/ml, 4° C. overnight. […] The antibodies were detected with anti-human IgG-Peroxidase (Sigma, A0170). After addition and blockade of the chemiluminescent substrate, absorption was read (A₄₅₀-A₅₇₀ at plate reader, Spectramax 03). EC₅₀ values were obtained by plotting Absorbance vs. log(Concentration) and sigmoidal 4-PL fitting using GraphPad Prism (Table 1). […] Antibodies were immobilized on amine reactive (2nd Generation) sensors (ForteBio, 18-5092). Association (600s) and dissociation (900s) of a dilution series of recombinant IL-2 (Acro Biosystems, IL2-H4113) were measured on the antibody-coated biosensors on an Octet-System (Octet RED, ForteBio). KD values were obtained by fitting the kinetics data with the ForteBio Data Analysis Software (8.2).

recombinant human IL-2 [4] = target: T3, recombinant human IL-2; test: ELISA, coated IL-2
Method: as §1

[5] = target: T4, CD122/CD132 complex (His-tagged, Acro Biosystem ILG-H5283) (UniProt P14784 27-239; P31785 23-254, limits assumed); test: SPR, CD122/CD132 captured on NTA chip
T4 construct: bought; also called dimeric IL-2 receptor
T4 sequence (looked up) 1: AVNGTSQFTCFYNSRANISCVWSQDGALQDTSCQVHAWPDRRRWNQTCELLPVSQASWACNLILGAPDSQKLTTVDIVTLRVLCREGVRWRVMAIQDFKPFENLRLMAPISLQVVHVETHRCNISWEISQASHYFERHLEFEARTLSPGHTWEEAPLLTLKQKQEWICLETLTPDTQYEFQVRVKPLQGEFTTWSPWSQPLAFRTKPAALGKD
T4 sequence (looked up) 2: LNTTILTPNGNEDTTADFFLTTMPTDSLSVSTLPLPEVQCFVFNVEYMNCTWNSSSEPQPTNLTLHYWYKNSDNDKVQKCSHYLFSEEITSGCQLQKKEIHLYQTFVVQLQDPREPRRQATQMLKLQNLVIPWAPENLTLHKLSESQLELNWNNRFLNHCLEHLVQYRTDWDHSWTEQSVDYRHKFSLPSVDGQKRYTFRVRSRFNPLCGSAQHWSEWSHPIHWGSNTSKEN
Description: Binding to the CD122/CD132 complex (His-tagged, Acro Biosystem, Cat #ILG-H5283) of one representative anti-IL-2 antibody/IL-2 fusion (QTY065) was additionally assessed by SPR (BIAcore 3000, v4.1.2; GE Healthcare) and compared to Proleukin. CD122/CD132 was captured on an NTA sensor chip (GE Healthcare). Proleukin or QTY065 Fab were used as analytes.

recombinant human IL-2 [6] = target: T3, recombinant human IL-2; test: BLI, antibody immobilized; BLI: antibody immobilized on amine reactive sensors, rhIL-2 in solution as a dilution series
Method: as §1

EC50 value for pSTAT5 induction, Jurkat-PD-1+CD122+ cells [1]: 5.37 nM | binding result [2]: no binding
B1: PXU588 (bispecific antibody, human IgG1, kappa, L234A L235A)
heavy 1: EVQLLESGGGLVQPGGSLRLSCAASGFTFSINAMTWVRQAPGKGLEWVSTISGSGFSTYYADSLKGRFTISRDNSKNTLYLQMNSLRAEDTAVYYCAKEVYGDYWGQGTLVTVSSASVAAPSVFIFPPSDEQLKSGTASVVCLLNNFYPREAKVQWKVDNALQSGNSQESVTEQDSKDSTYSLSSTLTLSKADYEKHKVYACEVTHQGLSSPVTKSFNRGECDKTHTCPPCPAPEAAGGPSVFLFPPKPKDTLMISRTPEVTCVVVDVSHEDPEVKFNWYVDGVEVHNAKTKPREEQYNSTYRVVSVLTVLHQDWLNGKEYKCKVSNKALAAPIEKTISKAKGQPREPQVYTLPPSREEMTKNQVSLTCLVKGFYPSDIAVEWESNGQPENNYKTTPPVLDSDGSFFLTSKLTVDKSRWQQGNVFSCSVMHEALHNHYTQKSLSLSPGK
light 1: RSVLTQPPSASGTPGQRVSISCSGASSNIGSSSVFWYQQLPGTAPKLLIYSNNQRPSGVPDRFSGSKSGTSASLAISGLRSEDEADYYCAAWDDSLSIWVFGGGTKLTVLSSASTKGPSVFPLAPSSKSTSGGTAALGCLVKDYFPEPVTVSWNSGALTSGVHTFPAVLQSSGLYSLSSVVTVPSSSLGTQTYICNVNHKPSNTKVDKRVEPKSC
heavy 2: EVQLVQSGAEVKKPGESLKISCKGSGYAFTNYLIEWVRQMPGKGLEWMGVINPGSGGTNYNEKFKGQVTISADKSISTAYLQWSSLKASDTAMYYCARWRGEGYYAYFDVWGQGTTVTVSSASTKGPSVFPLAPSSKSTSGGTAALGCLVKDYFPEPVTVSWNSGALTSGVHTFPAVLQSSGLYSLSSVVTVPSSSLGTQTYICNVNHKPSNTKVDKRVEPKSCDKTHTCPPCPAPEAAGGPSVFLFPPKPKDTLMISRTPEVTCVVVDVSHEDPEVKFNWYVDGVEVHNAKTKPREEQYNSTYRVVSVLTVLHQDWLNGKEYKCKVSNKALAAPIEKTISKAKGQPREPQVYTLPPSREEMTKNQVSLYCLVKGFYPSDIAVEWESNGQPENNYKTTPPVLDSDGSFFLYSKLTVDKSRWQQGNVFSCSVMHEALHNHYTQKSLSLSPGK
light 2: not shown
notes: also called IgG CrossMab 21A08A p2 x QTY065

Kd [5]: 0.32 nM
B3: QTY065 Fab (Fab)
heavy: EVQLVQSGAEVKKPGESLKISCKGSGYAFTNYLIEWVRQMPGKGLEWMGVINPGSGGTNYNEKFKGQVTISADKSISTAYLQWSSLKASDTAMYYCARWRGEGYYAYFDVWGQGTTVTVSS
light: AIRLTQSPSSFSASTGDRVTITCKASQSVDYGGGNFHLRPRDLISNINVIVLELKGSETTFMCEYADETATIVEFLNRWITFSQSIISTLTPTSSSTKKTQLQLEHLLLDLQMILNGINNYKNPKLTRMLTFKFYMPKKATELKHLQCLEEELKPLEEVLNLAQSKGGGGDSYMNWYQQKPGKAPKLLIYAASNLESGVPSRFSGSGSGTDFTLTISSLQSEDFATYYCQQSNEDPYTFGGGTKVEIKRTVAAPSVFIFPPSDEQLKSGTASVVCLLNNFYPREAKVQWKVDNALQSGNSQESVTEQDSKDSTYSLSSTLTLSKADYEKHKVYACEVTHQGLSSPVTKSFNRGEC
notes: also called Fab fragment of QTY065; not shown: CH1

Continued, binder first:

B2: Antibody A (antibody, human IgG1, kappa, N297A, V domains shown)
VH: EVQLVQSGAEVKKPGESLKISCKGSGYAFTNYLIEWVRQMPGKGLEWMGVINPGSGGTNYNEKFKGQVTISADKSISTAYLQWSSLKASDTAMYYCARWRGEGYYAYFDVWGQGTTVTVSS
VL: AIRLTQSPSSFSASTGDRVTITCKASQSVDYQGDSYMNWYQQKPGKAPKLLIYAASNLESGVPSRFSGSGSGTDFTLTISSLQSEDFATYYCQQSNEDPYTFGGGTKVEIKR
notes: humanized from antibody NARA1
Kd (recombinant human IL-2 [3]): 2.1 nM | EC50 (recombinant human IL-2 [4]): 0.37 nM

B4: Antibody B (antibody, human IgG1, kappa, V domains shown)
VH: QVQLVESGGGVVQPGRSLRLSCAASGYTFSSYLIEWVRQAPGKGLEWVAVINPGSGGTNYADSVKGRFTISADKSKNTAYLQMNSLRAEDTAVYYCARWRGDGYYAYFDVWGQGTTVTVSS
VL: EIVLTQSPATLSVSPGERATLSCRASQSVSYDGDSYMNWYQQKPGQAPRLLIYAASNLASGIPARFSGSGSGTEFTLTISSLQSEDAAVYYCQQSNEDPYTFGGGTKVEIKR
Kd (recombinant human IL-2 [6]): 270 nM

Reference: patent US20260207767A1 (ANAVEON, published 2026)
